The source of these data is patent US20210024646A1 (FUDAN UNIVERSITY, published 2021).

Assay [1] concerns the target T1, extracellular domain of human CD73 protein (CD73-ECD), C-terminus polyhistidine-tagged (human, UniProt P21589 27-547).
T1 sequence: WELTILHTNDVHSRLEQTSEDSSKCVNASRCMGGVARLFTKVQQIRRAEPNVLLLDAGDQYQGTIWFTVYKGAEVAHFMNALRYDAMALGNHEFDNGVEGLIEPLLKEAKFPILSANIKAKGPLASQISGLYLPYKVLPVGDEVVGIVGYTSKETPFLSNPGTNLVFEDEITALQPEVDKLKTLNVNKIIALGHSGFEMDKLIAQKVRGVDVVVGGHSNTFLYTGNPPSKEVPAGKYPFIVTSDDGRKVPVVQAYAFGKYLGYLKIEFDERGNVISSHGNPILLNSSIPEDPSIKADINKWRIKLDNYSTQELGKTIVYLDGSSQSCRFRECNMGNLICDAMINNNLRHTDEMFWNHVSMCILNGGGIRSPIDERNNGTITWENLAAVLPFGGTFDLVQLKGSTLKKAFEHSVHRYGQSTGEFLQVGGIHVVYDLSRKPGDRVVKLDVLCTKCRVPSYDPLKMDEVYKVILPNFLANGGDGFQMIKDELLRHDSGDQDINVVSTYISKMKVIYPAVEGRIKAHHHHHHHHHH
The assay is described as follows: cell-based or functional assay.

In assay [2] the target is T2, CD73 on the surface of human tumor cells (human, UniProt P21589 27-549).
T2 sequence (looked up): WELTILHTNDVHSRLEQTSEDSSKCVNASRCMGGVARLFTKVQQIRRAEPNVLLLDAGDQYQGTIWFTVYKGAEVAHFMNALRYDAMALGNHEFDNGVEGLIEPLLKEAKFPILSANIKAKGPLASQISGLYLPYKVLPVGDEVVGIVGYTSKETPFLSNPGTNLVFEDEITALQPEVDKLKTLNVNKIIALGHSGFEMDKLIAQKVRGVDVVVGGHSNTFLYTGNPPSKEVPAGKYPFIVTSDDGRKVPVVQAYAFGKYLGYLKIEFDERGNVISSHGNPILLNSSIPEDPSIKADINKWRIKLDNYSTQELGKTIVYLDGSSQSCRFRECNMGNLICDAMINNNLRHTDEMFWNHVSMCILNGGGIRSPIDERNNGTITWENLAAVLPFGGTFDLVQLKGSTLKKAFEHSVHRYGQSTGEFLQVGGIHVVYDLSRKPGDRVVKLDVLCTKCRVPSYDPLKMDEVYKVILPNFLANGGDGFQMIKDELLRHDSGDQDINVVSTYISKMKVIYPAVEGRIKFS
The assay can be described thus: cell-based or functional assay.

Assay [3] has as its target T2, CD73 on the surface of human tumor cells. The assay is described as follows: flow cytometry, MDA-MB-231 cells. In general terms: A flow cytometer gives signals particle by particle.
The target is the same in assay [4]. The assay can be described thus: FACS, MDA-MB-231 cells.
Assay [5] deals with T1, extracellular domain of human CD73 …. The assay can be described thus: ELISA, coated CD73-ECD. In general terms: ELISA stands for enzyme-linked immunosorbent assay.
The target of assay [6] is T2, CD73 on the surface of human tumor cells. The assay is described as follows: flow cytometry, NCI-H1299 cells.
For assay [7] the target is unchanged. The assay can be described thus: FACS, 5 µg/mL antibody, CD73-high Calu-1 against CD73-low MDA-MB-453 cells. How it is done:
3×10⁵ tumor cells were mixed well with the antibody (final concentration was 5 μg/mL), and then incubated at 4° C. for 1 h. The cells were washed twice with PBS to remove the unbound primary antibody. Then the target cells were incubated with PE-labeled secondary antibody at 4° C. for 30 minutes. The cells were washed twice with PBS to remove the unbound secondary antibody. Finally, the cells were resuspended in 200 μL PBS and the binding rate was detected with a Fluorescence Activated Cell Sorter (FACS).
The chimeric antibody could specifically recognize and bind tumor cells with CD73 high expression.

The target is the same in assay [8]. The assay can be described thus: FACS, NCI-H1299 cells. On the procedure:
Alternatively, 100 μL of mAb001c, mAb002c, mAb004c diluted in a 3-fold gradient from 100 nM to 0.046 nM were used as primary antibodies and mixed with 1×10⁵ NCI-H1299 cells suspended in 100 μL RPMI-1640 serum-free medium. Then the obtained solutions were incubated at 4° C. for 1 h, the cells were washed twice with PBS to remove unbound primary antibody, and the target cells were incubated with 200 μL PE-labeled secondary antibody (2 μg/mL) at 4° C. for 30 min. The cells were washed twice with PBS to remove unbound secondary antibody. Finally, the cells were resuspended in 200 μL PBS, and the binding affinities of the test antibodies to CD73 on the cell surface were determined by a flow cytometer.
With reference to the methods in Examples 4-8, the ELISA affinity to CD73-ECD protein, the inhibitory activity on recombinant human CD73 enzyme, the binding affinity to tumor cells, and the inhibitory activity on CD73 enzyme of tumor cells of the above prepared MEDI9447-κ as well as the antibodies mAb001c and mAb002c were detected.

Assay [9] has the same target. The assay is described as follows: FACS, purified antibody serial dilution, MDA-MB-231 cells.
Assay [10] shares this target. The assay is described as follows: cell-based or functional assay. The source holds these as a separate data set.
Assay [11] shares this target. The assay can be described thus: confocal microscopy, 5 µg/mL antibody, MDA-MB-231 cells. On the procedure: The antibodies (5 μg/mL) were incubated with the cells at 4° C. for 1 hour, or at 37° C. for 4 hours, and then placed under a laser scanning confocal microscope to observe the results.
MDA-MB-231 cells of 50% density were spread in a laser confocal culture dish, cultured at 37° C. for 16 hours, and then 5 μg/mL CD73 antibody was added. The cells were incubated at 37° C. for 4 hours or 4° C. for 1 hour, washed three times with PBS to remove the antibodies unbound to the cells, and immobilized with 4% paraformaldehyde at room temperature for 30 minutes. The cells were washed three times with PBS and permeabilized with 0.4% Triton X-100 for 10 minutes. The cells were washed three times with PBS, the Lamp-2 (rabbit anti-human) antibody was added and incubated at 37° C. for 1 hour to mark the position of cell lysosome. The unbound antibodies were washed off with PBS, and R-PE-labeled goat anti-human and Alexa Fluor 488-labeled donkey anti-rabbit secondary antibodies were added and incubated at 37° C. for 30 min.

Changes are numbered by the printed parent chain.

B1: mAb002c (antibody, V domains shown)
VH: QVQLQQPGAELVKPGASVRLSCKASGYTLTSYWMHWVKKRPGQGLEWIGEINPSNGRSNYNEKFKSKATLTVDRSSSTVYMQLGSLTSEDSAVYYCARRGVSGNYFDYWGQGTTLTVSS
VL: DIKMTQSPSSMYASLGERVTMTCKASQDINTYLSWFQQKPGKSPKTLIYRSNILVDGVPSRFSGSRSGQDYYLTITSLEYEDMGIYYCLQYDEFPYTFGGGTKLELK
notes: also called human-mouse chimeric antibody mAb002c
Broadly, the EC50 is the midpoint of the concentration-response curve. Low values mean a more potent agent, high ones a less potent agent. B1: the “IC50, inhibition of AMP hydrolysis by recombinant human CD73 (CellTiter-Glo)” value (shortened to “IC50, inhibition of AMP hydrolysis”) in assay [1] came to 0.031 nM. Also, the “Calu-1 CD73 Enzyme Inhibition IC50” value in assay [2] was 0.281 nM. Also, in assay [2], the “MDA-MB-231 CD73 Enzyme Inhibition IC50” value was 0.791 nM. For the same molecule, the “NCI-H1299 CD73 Enzyme Inhibition IC50” value in assay [2] stood at 0.191 nM. The EC50 in assay [3] is 0.36 nM; in [4] it was 0.356 nM; in assay [5], 0.016 nM; in [6], 0.39 nM; in assay [8] it was 0.391 nM. In addition, in [7], the “difference in binding rate (MFI), Calu-1 against MDA-MB-453” value (“difference in binding rate (MFI)” below) stood at 978 times.

B2: mAb002 (antibody, IgG1, V domains shown)
VH: B1 VH
VL: B1 VL
In turn, B2 returned an EC50 in [9] of 0.65 nM. This counts as sub-nanomolar.

B3: mAb001c (antibody, V domains shown)
VH: QVQLQQSGPELVKPGASVRISCKTSGYTFTNYYIYWVKQRPGQGLEWIGWIYPGNLNIKYNEKFKGKSTLTADKSSSTAFMQLSSLTSEDSAVYFCARDDNYAWFAYWGQGTLVTVSS
VL: DIVMTQSHKFMSTSIGDRVSITCKASQDVSTAVAWYQQKPGQSPKLLIYWTNTRHTGVPDRFTGNTSGTEHTLTISSVQAEDLALYYCQQHYSTPFTFGSGTTLEIK
notes: also called human-mouse chimeric antibody mAb001c
Turning to B3, in assay [1], the “IC50, inhibition of AMP hydrolysis” value was 0.025 nM. For the same molecule, in assay [2], the “Calu-1 CD73 Enzyme Inhibition IC50” value worked out at 0.506 nM. In assay [2], the “MDA-MB-231 CD73 Enzyme Inhibition IC50” value is 1.86 nM. Further, in [2], the “NCI-H1299 CD73 Enzyme Inhibition IC50” value is 0.236 nM. In addition, the EC50 in [3] worked out at 0.7 nM; in [4], 0.712 nM; in assay [5], 0.024 nM; in assay [6], 1 nM; in assay [8], 1.03 nM. In [7], the “difference in binding rate (MFI)” value is 250 times.

B4: mAb001 (antibody, IgG1, V domains shown)
VH: B3 VH
VL: B3 VL
In [9], B4 registered an EC50 of 1.24 nM.

B5: mAb004c (antibody, V domains shown)
VH: EVQLQQSGPELVKPGASVKIPCKASGYTFTDYNMDWVKQSHGKSLEWIGDINPNNGGSVYNQKFKGKATLTVDKSSSTAYMELRSLTSEDTAVYYCGRITGTGYWSFDVWGTGTTVTVSP
VL: DIQMTQSPASLSVSVGETVTITCRASENIYSNLAWYQQKQGKSPQLLVYGATNLAEGVPSRFSGSGLGTQYSLKISSLQSEDFGSYYCQHFWGIPWTFGGGTKLEIK
notes: also called human-mouse chimeric antibody mAb004c
As for B5, in assay [10], the “IC50, inhibition of CD73 enzyme on Calu-1 cells (AMP hydrolysis)” value turned out to be 0.63 nM; the “IC50, inhibition of CD73 enzyme on MDA-MB-231 cells (AMP hydrolysis)” value was determined as 4.16 nM; the “IC50, inhibition of CD73 enzyme on NCI-H1299 cells (AMP hydrolysis)” value came out at 0.385 nM. Also, in assay [1], the “IC50, inhibition of AMP hydrolysis” value was found to be 0.039 nM. For the same molecule, the half-maximal effective concentration (EC50) in [3] was 2.5 nM. Further, the midpoint of the response in [5], the EC50, lay at 0.038 nM. Moreover, the midpoint of the response in [6], the EC50, lay at 2.2 nM. For the same molecule, in assay [7], the “difference in binding rate (MFI)” value came to 856 times.

B6: mAb004 (antibody, IgG2b, V domains shown)
VH: B5 VH
VL: B5 VL
Molecule B6 had an EC50 in assay [9] of 4.69 nM.

B7: Hu001c-14 (antibody, V domains shown)
VH: QVQLVQSGAEVKKPGASVKVSCKTSGYTFTNYYIYWVRQAPGQRLEWMGWIYPGNLNIKYNEKFKGRVTITADTSASTAYMELSSLRSEDTAVYYCARDDNYAWFAYWGQGTLVTVSS
VL: DIQMTQSPSSLSASVGDRVTITCKASQDVSTAVAWYQQKPGKAPKLLIYWTNTRHTGVPSRFSGSGSGTDHTLTISSLQPEDFATYYCQQHYSTPFTFGQGTKLEIK
notes: Humanized
Take B7: the binding result in assay [5] and in assay [11] was “binds” each time.

B8: Hu001c-15 (antibody, V domains shown)
VH: B7 VH
VL: B7 VL with A43S
notes: Humanized
Take B8: the binding result in assay [5] and in [11] was “binds” in each case.
